Results reported in publication PMC6210743, “Starch Synthesis in Ostreococcus tauri: The Starch-Binding Domains of Starch Synthase III-B Are Essential for Catalytic Activity” (Frontiers in Plant Science, 2018).
Numbering of substitutions follows the chain as printed. Numbers in names are those of the source.

Assays:
[1] = substrate: Nc1ncnc2c1ncn2[C@@H]1O[C@H](COP(=O)(O)OP(=O)(O)O[C@H]2O[C@H](CO)[C@@H](O)[C@H](O)[C@H]2O)[C@@H](O)[C@H]1O; experiment: Pi release by alkaline phosphatase from ADP, Malachite Green assay; type: biochemical, Ostreococcus tauri; conditions: 2 mg/ml glycogen as acceptor, 50 mM BICINE pH 8.0, 30°C, nH 0.57
From the text: Pi release by alkaline phosphatase from ADP, Malachite Green assay on OsttaSSIII-B CD

[2] = substrate: Nc1ncnc2c1ncn2[C@@H]1O[C@H](COP(=O)(O)OP(=O)(O)O[C@H]2O[C@H](CO)[C@@H](O)[C@H](O)[C@H]2O)[C@@H](O)[C@H]1O; experiment: as above; type: biochemical, Ostreococcus tauri; conditions: 2 mg/ml glycogen as acceptor, 50 mM BICINE pH 8.0, 30°C
From the text: Pi release by alkaline phosphatase from ADP, Malachite Green assay on OsttaSSIII-B

B1: OsttaSSIII-B CD (Ostreococcus tauri) (protein)
chain: LHVCHIAVEMAPIAKVGGLADVVTAIGRAIQDNGHLVEIILPKYQFFNNSVLLGGKEYETHFDWAGTTIRVEKCKVEGLQCFFIEPQNNMFQTDSVYGRNDDAHRFNFFCNAALEFLVRTARQPDILHCHDWSSAEVARAYWEHYHHNGLTKPKVAFTIHNMNYGQAKLGEAVHHSQVATTVSPSYAGEVRGSPVIGNNGHKFTGVRNGIDPEIWDPETDIFVPVKYNADNQEEGKAAARAELRQRAGMTGWDDKPIVGVVSRLTAQKGVHLIKHAAHHTLSRGGQFVLLGSAPDPKIQGEFNGLANQLGGEDTGFFFAFDEPLSHLMYAGCDVILVPSMFEPCGLTQMISMRYGAVPVVRATGGLRDTVFDVDNEKERAAWEVGGSTDWKTDGDMTNGFSFEGTDEGSLNYALDRCLDAFYNDREWFRSLQKRVMLQDWSWNRPANDYEELYYKMIGR
Question: Which K0.5 [1] does the source give for B1 here?
Answer: 0.12 ± 0.04 mM

Question: What about the Vmax [1] of the same protein?
Answer: 0.76 µmol/min/mg

B2: OsttaSSIII-B (Ostreococcus tauri) (protein)
chain: ASVETQLDGTDHPRVFTVPATPVAGGALRVFADVERADALRSASGWKLIGGYNAWRVGEFTKDMIKVKGTSWVYADVNVDERAFSMDFVFKGDGEAYEKDEGQDFSLTVDFGPTPEEFEEMLKVIEMENKARDEANAFIDGQMARARESGAGASIEKYGRVICKTASGKPGVAGSTERVMWNKAYNPIGGDTDKLVLHVGFNGWCAGVEAKFDLVRATGEIKDENNDWWVADVPLRADAYLLDFVVSDVEESAWDNNEQANFTLAVETSDEEWAVLRELKFEEIRAMAFKKELAEKERKERRAKADAEAKAKAIEVGLKQQSYIIHTEPKVPQVGKPLKVFYNKNNTNLSWSDEIYMTGGFNRWSHEAAIEPVKMTPPGAGEEFFTVTVPRVPTDAWMVDFVFSSGVGEGAQYDNKSGRDYHLPTRGSTASKPPLHVCHIAVEMAPIAKVGGLADVVTAIGRAIQDNGHLVEIILPKYQFFNNSVLLGGKEYETHFDWAGTTIRVEKCKVEGLQCFFIEPQNNMFQTDSVYGRNDDAHRFNFFCNAALEFLVRTARQPDILHCHDWSSAEVARAYWEHYHHNGLTKPKVAFTIHNMNYGQAKLGEAVHHSQVATTVSPSYAGEVRGSPVIGNNGHKFTGVRNGIDPEIWDPETDIFVPVKYNADNQEEGKAAARAELRQRAGMTGWDDKPIVGVVSRLTAQKGVHLIKHAAHHTLSRGGQFVLLGSAPDPKIQGEFNGLANQLGGEDTGFFFAFDEPLSHLMYAGCDVILVPSMFEPCGLTQMISMRYGAVPVVRATGGLRDTVFDVDNEKERAAWEVGGSTDWKTDGDMTNGFSFEGTDEGSLNYALDRCLDAFYNDREWFRSLQKRVMLQDWSWNRPANDYEELYYKMIGR
Question: For B2, which K0.5 ([2]; nH 1.16) is on record?
Answer: 0.09 ± 0.02 mM

Question: And the Vmax ([2]; nH 1.16)?
Answer: 1.65 µmol/min/mg

B3: OsttaSSIII-B (Ostreococcus tauri; W304A) (protein)
chain: B2 chain with W254A
Question: With B3 as the protein, how does the K0.5 ([2]; nH 0.80) read?
Answer: 0.15 ± 0.03 mM

Question: And the Vmax ([2]; nH 0.80)?
Answer: 0.31 µmol/min/mg

B4: OsttaSSIII-B (Ostreococcus tauri; F138A) (protein)
chain: B2 chain with F88A
Question: With B4 as the protein, how does the K0.5 ([2]; nH 1.06) read?
Answer: 0.07 ± 0.02 mM

Question: And the Vmax ([2]; nH 1.06)?
Answer: 0.23 µmol/min/mg

B5: OsttaSSIII-B (Ostreococcus tauri; Y147A) (protein)
chain: B2 chain with Y97A
Question: What does the source list for B5?
Answer: K0.5 ([2]; nH 0.78): 0.07 ± 0.01 mM; Vmax ([2]; nH 0.78): 1.1 µmol/min/mg

B6: OsttaSSIII-B (Ostreococcus tauri; W122A/Y124A) (protein)
chain: B2 chain with W72A, Y74A
Question: B6 was tested. Which K0.5 ([2]; nH 0.94) did it give?
Answer: 0.11 ± 0.01 mM

Question: And the Vmax ([2]; nH 0.94)?
Answer: 0.57 µmol/min/mg

B7: OsttaSSIII-B (Ostreococcus tauri; W279A) (protein)
chain: B2 chain with W229A
Question: How did the K0.5 ([2]; nH 0.88) turn out when B7 was run?
Answer: 0.38 ± 0.11 mM

Question: What about the Vmax ([2]; nH 0.88) of the same protein?
Answer: 0.42 µmol/min/mg
